{"source": "patent US20250002610A1", "about": "(Genmab, published 2025)", "binders": {"B1": {"name": "BisG1-FAPα-FERL/b12-FERR (bispecific antibody, human IgG1, kappa)", "heavy 1": "EVQLLESGGGLVQPGGSPRLSCEASGFTFSSYALSWVRQAPGKGLEWVSAISGSGGGRYYADSVKGRFTISRDNSKNTLFLQMNSLRAEDTAVYYCAKEGYSSSGTYWDHWGQGTLVTVSSASTKGPSVFPLAPSSKSTSGGTAALGCLVKDYFPEPVTVSWNSGALTSGVHTFPAVLQSSGLYSLSSVVTVPSSSLGTQTYICNVNHKPSNTKVDKRVEPKSCDKTHTCPPCPAPEFERGPSVFLFPPKPKDTLMISRTPEVTCVVVDVSHEDPEVKFNWYVDGVEVHNAKTKPREEQYNSTYRVVSVLTVLHQDWLNGKEYKCKVSNKALPAPIEKTISKAKGQPREPQVYTLPPSREEMTKNQVSLTCLVKGFYPSDIAVEWESNGQPENNYKTTPPVLDSDGSFLLYSKLTVDKSRWQQGNVFSCSVMHEALHNHYTQKSLSLSPG", "light 1": "AIQMTQSPSSVSASVGDRVTITCRASQGVSSWLAWYQQKPGRAPKLLIYVASTLQSGVPSRFSGSGSGTDFTLTINSLQPEDFATYYCQQANSFPPTFGQGTRLEMKRTVAAPSVFIFPPSDEQLKSGTASVVCLLNNFYPREAKVQWKVDNALQSGNSQESVTEQDSKDSTYSLSSTLTLSKADYEKHKVYACEVTHQGLSSPVTKSFNRGEC", "heavy 2": "QVQLVQSGAEVKKPGASVKVSCQASGYRFSNFVIHWVRQAPGQRFEWMGWINPYNGNKEFSAKFQDRVTFTADTSANTAYMELRSLRSADTAVYYCARVGPYSWDDSPQDNYYMDVWGKGTTVIVSSASTKGPSVFPLAPSSKSTSGGTAALGCLVKDYFPEPVTVSWNSGALTSGVHTFPAVLQSSGLYSLSSVVTVPSSSLGTQTYICNVNHKPSNTKVDKRVEPKSCDKTHTCPPCPAPEFERGPSVFLFPPKPKDTLMISRTPEVTCVVVDVSHEDPEVKFNWYVDGVEVHNAKTKPREEQYNSTYRVVSVLTVLHQDWLNGKEYKCKVSNKALPAPIEKTISKAKGQPREPQVYTLPPSREEMTKNQVSLTCLVKGFYPSDIAVEWESNGQPENNYKTTPPVLDSDGSFFLYSRLTVDKSRWQQGNVFSCSVMHEALHNHYTQKSLSLSPG", "light 2": "EIVLTQSPGTLSLSPGERATFSCRSSHSIRSRRVAWYQHKPGQAPRLVIHGVSNRASGISDRFSGSGSGTDFTLTITRVEPEDFALYYCQVYGASSYTFGQGTKLERKRTVAAPSVFIFPPSDEQLKSGTASVVCLLNNFYPREAKVQWKVDNALQSGNSQESVTEQDSKDSTYSLSSTLTLSKADYEKHKVYACEVTHQGLSSPVTKSFNRGEC"}, "B2": {"name": "IgG1-DR4-FERR (antibody, V domains shown)", "VH": "QVQLQESGPGLVKPSGTLSLTCAVSGGSISSYSWWSWIRQPPGKGLEWIGELYHSGSTNYNPSLKSRVTISVDKSKNQFSLKLRSVTAADTAVYYCVRGVATIDYWGQGTLVTVSS", "VL": "QSALTQPPSASGSPGQSVTISCTGTSSDVGGYNFVSWYQQDPGKAPKLLIYEVTKRPSGVPDRFSGSKSGNTASLTVSGLQAEDEADYYCSSYAGSNNVMFGGGTKLTVLG", "notes": "Bivalent monoclonal IgG1 lambda"}, "B3": {"name": "BisG1-b12-FERL/DR4-FERR (bispecific antibody, human IgG1, kappa, lambda)", "heavy 1": "QVQLVQSGAEVKKPGASVKVSCQASGYRFSNFVIHWVRQAPGQRFEWMGWINPYNGNKEFSAKFQDRVTFTADTSANTAYMELRSLRSADTAVYYCARVGPYSWDDSPQDNYYMDVWGKGTTVIVSSASTKGPSVFPLAPSSKSTSGGTAALGCLVKDYFPEPVTVSWNSGALTSGVHTFPAVLQSSGLYSLSSVVTVPSSSLGTQTYICNVNHKPSNTKVDKRVEPKSCDKTHTCPPCPAPEFERGPSVFLFPPKPKDTLMISRTPEVTCVVVDVSHEDPEVKFNWYVDGVEVHNAKTKPREEQYNSTYRVVSVLTVLHQDWLNGKEYKCKVSNKALPAPIEKTISKAKGQPREPQVYTLPPSREEMTKNQVSLTCLVKGFYPSDIAVEWESNGQPENNYKTTPPVLDSDGSFLLYSKLTVDKSRWQQGNVFSCSVMHEALHNHYTQKSLSLSPG", "light 1": "EIVLTQSPGTLSLSPGERATFSCRSSHSIRSRRVAWYQHKPGQAPRLVIHGVSNRASGISDRFSGSGSGTDFTLTITRVEPEDFALYYCQVYGASSYTFGQGTKLERKRTVAAPSVFIFPPSDEQLKSGTASVVCLLNNFYPREAKVQWKVDNALQSGNSQESVTEQDSKDSTYSLSSTLTLSKADYEKHKVYACEVTHQGLSSPVTKSFNRGEC", "heavy 2": "QVQLQESGPGLVKPSGTLSLTCAVSGGSISSYSWWSWIRQPPGKGLEWIGELYHSGSTNYNPSLKSRVTISVDKSKNQFSLKLRSVTAADTAVYYCVRGVATIDYWGQGTLVTVSSASTKGPSVFPLAPSSKSTSGGTAALGCLVKDYFPEPVTVSWNSGALTSGVHTFPAVLQSSGLYSLSSVVTVPSSSLGTQTYICNVNHKPSNTKVDKRVEPKSCDKTHTCPPCPAPEFERGPSVFLFPPKPKDTLMISRTPEVTCVVVDVSHEDPEVKFNWYVDGVEVHNAKTKPREEQYNSTYRVVSVLTVLHQDWLNGKEYKCKVSNKALPAPIEKTISKAKGQPREPQVYTLPPSREEMTKNQVSLTCLVKGFYPSDIAVEWESNGQPENNYKTTPPVLDSDGSFFLYSRLTVDKSRWQQGNVFSCSVMHEALHNHYTQKSLSLSPG", "light 2": "QSALTQPPSASGSPGQSVTISCTGTSSDVGGYNFVSWYQQDPGKAPKLLIYEVTKRPSGVPDRFSGSKSGNTASLTVSGLQAEDEADYYCSSYAGSNNVMFGGGTKLTVLGQPKAAPSVTLFPPSSEELQANKATLVCLISDFYPGAVTVAWKADSSPVKAGVETTTPSKQSNNKYAASSYLSLTPEQWKSHRSYSCQVTHEGSTVEKTVAPTECS", "notes": "Fab-arm exchange of IgG1-b12-FERL and IgG1-DR4-FERR; also called bsIgG1-ctrl-FERLxDR4-FERR"}}, "key": {"[1]": {"target": "T1, human FAPα (Fibroblast activation protein alpha), cell surface expressed (human, UniProt Q12884 1-760)", "T1 construct": "Endogenous on human lung fibroblasts and CAFs", "T1 sequence": "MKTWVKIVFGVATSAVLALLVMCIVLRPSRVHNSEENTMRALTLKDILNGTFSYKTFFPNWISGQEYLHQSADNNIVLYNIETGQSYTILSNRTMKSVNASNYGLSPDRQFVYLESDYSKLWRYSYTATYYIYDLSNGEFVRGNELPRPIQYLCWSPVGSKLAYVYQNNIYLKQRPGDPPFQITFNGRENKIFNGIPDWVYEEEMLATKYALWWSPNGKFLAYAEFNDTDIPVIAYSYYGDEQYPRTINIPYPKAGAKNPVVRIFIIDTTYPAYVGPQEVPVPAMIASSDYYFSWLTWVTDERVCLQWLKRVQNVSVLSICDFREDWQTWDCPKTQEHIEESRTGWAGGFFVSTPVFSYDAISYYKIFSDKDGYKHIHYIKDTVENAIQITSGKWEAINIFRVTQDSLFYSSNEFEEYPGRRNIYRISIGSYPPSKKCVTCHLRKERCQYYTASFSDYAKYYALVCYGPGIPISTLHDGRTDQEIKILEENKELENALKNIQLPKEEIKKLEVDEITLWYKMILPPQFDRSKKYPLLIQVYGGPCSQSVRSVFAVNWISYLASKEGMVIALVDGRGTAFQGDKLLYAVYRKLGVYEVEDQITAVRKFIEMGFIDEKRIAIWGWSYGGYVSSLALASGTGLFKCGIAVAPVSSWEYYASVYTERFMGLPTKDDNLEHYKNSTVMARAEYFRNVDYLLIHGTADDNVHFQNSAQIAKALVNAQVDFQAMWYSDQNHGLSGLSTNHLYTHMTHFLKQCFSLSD", "test": "flow cytometry, CAFs, n = 1", "procedure": "Binding of bispecific or monoclonal antibodies carrying the anti-FAPα arm derived from IgG1-FAPα-FERL (BisG1-FAPα-FERL/DR4-FERR, BisG1-FAPα-FERL/b12-FERR, and IgG1-FAPα-FERL) to cell surface expressed human FAPα was analyzed by flow cytometry using human lung fibroblasts and CAFs, which endogenously express FAPα. BisG1-b12-FERL/b12-FERR was used as negative control.\nHuman lung fibroblasts and CAFs (50,000 cells/well) were seeded in 96-Well round bottom plates (Greiner Bio-one, Cat #650101). Antibody dilutions were prepared using fluorescence-activated cell sorting (FACS) buffer, consisting of phosphate buffer saline (PBS, Lonza, Cat #BE17-517Q)+1% Bovine Serum Albumin (BSA, Roche, Cat #10735086001)+0.02% Sodium Azide (Bio-World, Cat #41920044-3). Plates were centrifuged, supernatant was removed, cells were resuspended in 50 μL of human Fc Block (BD, Cat #564220, diluted 1:100 in FACS buffer) and 50 μL of viability stain TO-PRO-3 Iodide (Thermo Fisher, Cat #T3605, diluted 1: 25,000 in FACS buffer), and incubated for 15 min at 4° C. Plates were washed three times with FACS buffer. […] Antibody binding to viable cells (TO-PRO-3 negative) was analyzed by flow cytometry on a FACSCelesta™ (BD biosciences) and data were processed using FlowJo_v10.8.1 (FlowJo LLC). Geomean fluorescence intensity, gMFI, was determined and visualized using GraphPad Prism."}, "[2]": {"target": "human DR4 with death domain deletion on ExpiCHO-S cells (human)", "sequence (chain, as listed by the source limits assumed, stated change not applied)": "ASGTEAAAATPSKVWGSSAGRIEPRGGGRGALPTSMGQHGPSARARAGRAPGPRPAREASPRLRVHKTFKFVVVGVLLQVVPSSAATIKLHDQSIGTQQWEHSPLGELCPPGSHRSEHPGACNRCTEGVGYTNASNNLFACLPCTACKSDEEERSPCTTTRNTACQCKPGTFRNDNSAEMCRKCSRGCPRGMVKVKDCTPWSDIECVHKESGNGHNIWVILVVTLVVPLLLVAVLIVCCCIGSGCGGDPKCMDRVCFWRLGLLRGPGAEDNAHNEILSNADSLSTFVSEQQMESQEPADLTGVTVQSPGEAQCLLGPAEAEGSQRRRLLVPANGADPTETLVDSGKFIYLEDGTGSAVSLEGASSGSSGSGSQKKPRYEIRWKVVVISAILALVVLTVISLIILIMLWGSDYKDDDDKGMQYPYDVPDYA", "test": "flow cytometry, ExpiCHO-S cells expressing human DR4, average ± SEM"}, "[3]": {"target": "T2, human DR4HsECD-FcHisCtag (human)", "T2 construct": "also called recombinant human DR4", "T2 sequence (chain, as listed by the source limits assumed)": "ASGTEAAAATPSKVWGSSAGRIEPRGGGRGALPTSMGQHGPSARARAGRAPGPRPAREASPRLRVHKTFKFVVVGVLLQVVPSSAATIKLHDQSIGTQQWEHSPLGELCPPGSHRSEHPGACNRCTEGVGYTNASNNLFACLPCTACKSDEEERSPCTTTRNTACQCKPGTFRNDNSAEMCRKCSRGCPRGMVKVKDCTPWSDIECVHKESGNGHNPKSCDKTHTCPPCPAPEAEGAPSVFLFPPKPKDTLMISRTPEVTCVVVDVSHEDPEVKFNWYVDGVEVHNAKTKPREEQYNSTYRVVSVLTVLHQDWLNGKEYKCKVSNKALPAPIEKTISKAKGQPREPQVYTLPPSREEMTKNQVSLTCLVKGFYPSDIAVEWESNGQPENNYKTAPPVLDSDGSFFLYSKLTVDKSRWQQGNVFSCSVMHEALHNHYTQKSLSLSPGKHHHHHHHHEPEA", "test": "BLI (Octet), antigen captured on anti-Penta-HIS sensors, average of three experiments", "procedure": "Experiments were carried out while shaking at 1,000 RPM at 30° C. Amine Reactive 2nd Generation (AR2G) biosensors (Sartorius, Cat #18-5092) were activated by reaction with 20 mM EDC (N-(3-Dimethylaminopropyl)-N′-ethylcarbodiimide hydrochloride) (Sigma-Aldrich, Cat #03449) and 10 mM s-NHS (N-hydroxysulfosuccinimide sodium salt) (Sigma-Aldrich, Cat #56485) for 300 s. The activated AR2G sensors were loaded with 2.5 μg/mL His-tagged recombinant Human FAPα (Acro Biosystems, Cat #FAP-H5244-100ug) in 10 mM Sodium Acetate pH 5.0 (Sartorius, Cat #18-1069) or 2.5 μg/mL His-tagged recombinant Cynomolgus FAPα (Acro Biosystems, Cat #FAP-C52H3-100ug) in 10 mM Sodium Acetate pH 5.0 for 600 s and quenched with 1 M ethanolamine pH 8.5 (Sartorius Cat #18-1071) for 300 s. After a baseline measurement in Sample Diluent (1000 s; Sartorius, Cat #18-1104), the association (100 s) and dissociation (4,000 s) of functionally monovalent antibody was determined using a concentration range of 0.78-800 nM with two-fold dilution steps in Sample Diluent. The molecular mass of the antibodies used for the calculations was calculated from the sequences.\nThe binding affinity of BisG1-FAPα-FERL/DR4-FERR, BisG1-b12-FERL/DR4-FERR and control BisG1-FAPα-FERL/b12-FERR to recombinant human and cynomolgus monkey DR4 protein was determined using label-free biolayer interferometry on an Octet HTX instrument (Sartorius).\nThe protocol detailed in Example 5 was used with the following differences: anti-Penta-HIS biosensors (Sartorius, Cat #18-5120) were used; the sensors were preconditioned by exposure to 10 mM glycine (Sigma-Aldrich, Cat #15527) buffer pH 1.5 for 5 s, followed by neutralization in Sample Diluent (Sartorius, Cat #18-1104) for 5 s; both steps were repeated 2 times; the sensors were loaded with 50 nM human DR4HsECD-FcHisCtag (SEQ ID NO: 66), or cynomolgus DR4MfECD-FcHisCtag (SEQ ID NO: 67), for 600 s; the dissociation time was 1,000 s; The window of interest for the dissociation time was set at 100 s for the cynomolgus antigen and at 1,000 s for the human antigen."}}}
{"binder": "B1", "values": [{"measurement": "EC50", "setting": "[1]", "value": 0.183, "unit": "µg/mL"}]}
{"binder": "B2", "values": [{"measurement": "EC50", "setting": "[2]", "value": 0.14, "unit": "µg/mL"}]}
{"binder": "B3", "values": [{"measurement": "Kd", "setting": "[3]", "value": 0.32, "unit": "nM"}, {"measurement": "koff", "setting": "[3]", "value": 0.0001, "unit": "s⁻¹"}, {"measurement": "kon", "setting": "[3]", "value": 330000, "unit": "M⁻¹ s⁻¹"}]}
